According to US20150204859, “MULTIPLEXED MICROCOLUMN DEVICES AND PROCESSES FOR SELECTION OF NUCLEIC ACID APTAMERS” (CORNELL UNIVERSITY, published 2015):

What was measured:
[1] = molecular target: GFP (UniProt P42212); details: RNA transcript; printed sequence is the DNA template strand (RNA is its reverse complement); microcolumn qPCR recovery fit by simulation; non-specific background binding
[2] = molecular target: T1, GST tag (UniProt P08515 P08515:1-218); assay: EMSA; no binding to GST tag alone; FP FIG. 22D; details: tags: GST tag alone, ~30 kDa; label: 3'-fluorescein (5-thiosemicarbazide)
Description: (§1) The candidate aptamers were 3′-end labeled with fluorescein 5-thiosemicarbazide (Invitrogen) as described previously (Ref. 16). 50 μL binding reactions were prepared with 2 nM fluorescently-labeled RNA and decreasing amounts of protein (2000 to 0 nM) in binding buffer containing 0.01% IGEPAL CA630, 10 μg/ml tRNA, and 3U of SUPERase•In RNase Inhibitor (Invitrogen). […] The gel was run for 80 minutes at 100 volts in refrigerated 0.5×TBE. Images were acquired using the fluorescein scan settings on a Typhoon 9400 imager (GE Healthcare Life Sciences). The resulting bands were quantified with ImageQuant software and the data was fit to the Hill equation using Igor (Wavemetrics) to estimate the equilibrium dissociation constant (KD).
(§2) The putative RNA aptamers were fluorescently end-labeled and then tested for binding to their hHSF targets using F-EMSA and FP assays (Ref. 16). An image of a typical F-EMSA result is shown in FIG. 17A for hHSF1-R5-1 aptamer binding to hHSF1 protein. […] The F-EMSA results were confirmed by the FP assays (FIGS. 22 and 23). Thus, the observed binding is not due to the affinity tags on the protein targets but rather specific domains of the targets themselves.

[3] = molecular target: T2, hHSF2 (Homo sapiens, UniProt Q03933 Q03933:1-536); assay: EMSA; confirmed by FP (FIG. 22B); exact value only in figure; details: tags: N-terminal GST; E. coli BL21(DE3)-RIPL; label: 3'-fluorescein (5-thiosemicarbazide)
Description: as §1, §2

[4] = molecular target: T3, hHSF1 (Homo sapiens, UniProt Q00613 Q00613:1-529); assay: EMSA; room temperature 2 h, 10 ug/ml tRNA; confirmed by FP (FIG. 22A); exact value only in figure; details: tags: N-terminal GST; E. coli BL21(DE3)-RIPL; label: 3'-fluorescein (5-thiosemicarbazide)
Description: as §1, §2

[5] = molecular target: T1, GST tag; assay: EMSA; no binding to GST tag alone; FP FIG. 23D; details: tags: GST tag alone, ~30 kDa; label: 3'-fluorescein (5-thiosemicarbazide)
Description: as §1, §2

[6] = molecular target: T2, hHSF2; assay: EMSA; room temperature 2 h, 10 ug/ml tRNA; confirmed by FP (FIG. 23B); exact value only in figure; details: tags: N-terminal GST; E. coli BL21(DE3)-RIPL; label: 3'-fluorescein (5-thiosemicarbazide)
Description: as §1, §2

[7] = molecular target: T3, hHSF1; assay: EMSA; confirmed by FP (FIG. 23A); exact value only in figure; details: tags: N-terminal GST; E. coli BL21(DE3)-RIPL; label: 3'-fluorescein (5-thiosemicarbazide)
Description: as §1, §2

T2 sequence (Q03933 whole entry, one chain of several): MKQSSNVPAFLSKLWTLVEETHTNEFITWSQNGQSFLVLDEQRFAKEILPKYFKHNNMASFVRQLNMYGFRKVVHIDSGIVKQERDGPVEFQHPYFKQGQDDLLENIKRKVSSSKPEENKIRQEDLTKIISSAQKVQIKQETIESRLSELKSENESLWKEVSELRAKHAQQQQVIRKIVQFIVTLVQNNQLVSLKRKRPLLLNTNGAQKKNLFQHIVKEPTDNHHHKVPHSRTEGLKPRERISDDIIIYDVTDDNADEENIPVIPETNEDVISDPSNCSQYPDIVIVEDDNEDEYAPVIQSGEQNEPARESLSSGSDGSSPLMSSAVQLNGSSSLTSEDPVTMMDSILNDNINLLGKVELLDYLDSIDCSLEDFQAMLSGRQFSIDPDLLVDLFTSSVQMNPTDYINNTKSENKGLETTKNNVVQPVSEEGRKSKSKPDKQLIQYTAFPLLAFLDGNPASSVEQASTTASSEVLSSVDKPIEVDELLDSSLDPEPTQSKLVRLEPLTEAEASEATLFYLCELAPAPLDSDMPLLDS
T1 sequence (P08515 whole entry, one chain of several): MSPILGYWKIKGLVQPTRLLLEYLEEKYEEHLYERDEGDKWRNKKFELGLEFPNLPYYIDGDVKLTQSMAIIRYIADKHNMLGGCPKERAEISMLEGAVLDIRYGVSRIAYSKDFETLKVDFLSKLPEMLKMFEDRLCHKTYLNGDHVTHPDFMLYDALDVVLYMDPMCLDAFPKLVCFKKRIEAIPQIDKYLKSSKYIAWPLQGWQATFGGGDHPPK
T3 sequence (Q00613 whole entry, one chain of several): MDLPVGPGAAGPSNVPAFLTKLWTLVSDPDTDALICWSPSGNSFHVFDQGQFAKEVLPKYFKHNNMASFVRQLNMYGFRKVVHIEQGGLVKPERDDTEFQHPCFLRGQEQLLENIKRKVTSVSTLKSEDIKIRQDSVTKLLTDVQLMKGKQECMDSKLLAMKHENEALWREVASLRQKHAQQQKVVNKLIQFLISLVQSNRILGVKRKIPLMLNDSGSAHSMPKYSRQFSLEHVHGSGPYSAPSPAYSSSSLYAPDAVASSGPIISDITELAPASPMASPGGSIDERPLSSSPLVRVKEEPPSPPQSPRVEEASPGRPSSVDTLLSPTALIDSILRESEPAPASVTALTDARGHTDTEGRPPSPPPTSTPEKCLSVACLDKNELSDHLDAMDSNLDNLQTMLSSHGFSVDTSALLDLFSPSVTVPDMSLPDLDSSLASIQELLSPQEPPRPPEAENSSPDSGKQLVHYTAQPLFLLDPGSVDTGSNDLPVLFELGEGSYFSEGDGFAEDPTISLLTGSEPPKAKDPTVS

Question: How did the Kd [1] turn out when “AAGCUUCGUCAAGUCUGCAGUGAANNNNNNNNNNNNNNNNNNNNNNNNNNNNNNNNNNNNNNNNNNNNNNNNNNNNNNNNNNNNNNNNNNNNNNGAAUUCGUAGAUGUGGAUCCAUUCCC [N70 random RNA library]” was run?
Answer: Its Kd is over 10000 nM.

B1: hHSF1-R5-1 (ssRNA)
RNA: GGGAAUGGAUCCACAUCUACGAAUUCAAUCAAGUCCCCAGACUCAGCAACACUGGACAGCGAUAUGCAGAUAACCAAGACCAAUUCACUCCAGUUCACUGCAGACUUGACGAAGCUU
Question: Which results are given for B1?
Answer: binding result [2]: no binding; Kd [3]: < 20 nM; Kd [4]: < 20 nM

B2: hHSF2-R5-2 (ssRNA)
RNA: GGGAAUGGAUCCACAUCUACGAAUUCAAUCAAGUCCCCAGACUCAGCAACACUGGACAGCGAUAUGCAGAUAACCAAGACCAAUUCACUCCAGUUCACUGCAGACUUGACGAAGCUU
Question: Does B2 bind [5]?
Answer: Result: no binding

Question: What about the Kd [6] of the same molecule?
Answer: The Kd was under 20 nM.

Question: What about the Kd [7] of the same molecule?
Answer: Its Kd is under 20 nM.
